Patent US20210230248A1, “Multivalent pharmacophores for high avidity and overexpressed-target specific binding and uses thereof” (priority 2020, published 2021)
pKd: −log10 of the molar value. Entries after “also recorded” stand apart in the source; their conditions may differ. Where no end group is shown, it is not given here.

Key:
[1] = target: T1, PD-L1 overexpressing SU-DHL-1 cells (Homo sapiens, UniProt Q9NZQ7); assay: Competitive binding assay on PD-L1 overexpressing SU-DHL-1 cells; conditions: antibody at ~33.3 nM, assuming linear relationship
T1 construct: endogenous in cells; host or cells: SU-DHL-1 cells
Experimental: PC3, a low PD-L1 expressing cell is used as a control.
PE-conjugated mouse anti-human PD-L1 antibody (Clone MIN1, eBioscience) at the final concentration of 0.5 μg/100 μL (˜33.3 nM) was mixed with 4-arm PEG-2K PD-1ecto or 6-arm PEG-3.4K PD-1ecto titrated from 50 nM to 1 nM in Stain Buffer. SU-DHL-1 cells (0.5×10^6 cells) were resuspended in each titration of reagent in a final volume of 100 μL per well. After incubation for 3 h on ice with occasional mixing, the cells were washed 3 times. The amount of anti-PD-L1 antibody bound to the cells was quantified by the fluorescence intensity of PE using flow cytometry.

[2] = target: T2, uPAR overexpressing Hela cells (Homo sapiens, UniProt Q03405); assay: Competitive binding assay on uPAR overexpressing Hela cells; conditions: ratio of IC50 values
T2 construct: endogenous in cells; host or cells: Hela cells
Excerpt: This assay is to measure the binding avidity of multivalent PEG-GFD pharmacophores to uPAR overexpressing Hela cells in comparison to uPA. Hela cells express uPAR but not uPA (Rabbani et al., Neoplasia, 2010, 12(10); 778-88), and therefore competition from endogenous uPA can be excluded.
Mouse anti-uPAR (Clone VIM5) is an uPAR blocking antibody (Sillaber et al., J Biol Chem, 1997, 272(12):7824-32). The potency of multivalent PEG-GFD pharmacophores and native uPA to compete against the antibody in binding to the overexpressed uPAR on the surface of Hela cells is measured and compared in this assay.
Hela cells were detached from culture flasks by trypsin/EDTA, resuspended in complete culture medium in a 50 mL conical tube, and incubated for 1 h at 37° C. in 5% CO2 incubator to allow receptor recovery. PE-conjugated anti-uPAR antibody (Clone VIM5; Invitrogen) at the final concentration of 0.5 μg/100 μL (33.33 nM) was mixed with titrated concentrations of 4-arm PEG-GFD and 6-arm PEG-GFD, and recombinant human uPA (Biolegend) in Stain Buffer. The mixture was added into Hela cells (500,000 cells in 100 μL; final density). […] The fluorescent intensity of PE on Hela cells was quantified by flow cytometry and plotted against the titration of 4-arm PEG-GFD, 6-arm PEG-GFD and uPA. The binding avidity of multivalent PEG-GFD pharmacophores relative to native uPA can be calculated.

[3] = tested on: H1299, SW480, HT-1080 and PC3 cells; assay: Cell adhesion assay on vitronectin coated plate; type: cell-based, human; conditions: four uPAR overexpressing cell lines; 3 h; various concentrations
Experimental: For adhesion of cancer cells to vitronectin, 96-well plate was coated overnight with vitronectin (Thermo Fisher Scientific) at 5 μg/mL in PBS at 4° C., 50 μL/well. The wells without coating were used as negative controls. The plate was then blocked with 3% MSD Blocking Buffer for 2 h at room temperature. Four uPAR overexpressing human cancer lines were used for the assay: non-small cell lung cancer line H1299, colorectal cancer line SW480, fibrosarcoma line HT-1080 and prostate cancer line PC3. The cells were detached from culture flasks by trypsin/EDTA, resuspended in complete culture medium in a 50 mL conical tube, and incubated for 1 h at 37° C. in 5% CO2 incubator to allow receptor recovery. Cells were then washed with serum-free medium and resuspended in DMEM medium with 0.5% BSA. 50,000 cells in 100 μL were plated into each well with various concentrations of 4-arm and 6-arm PEG-GFD pharmacophores, and uPAR blocking antibody, VIM5. The plates were incubated at 37° C. in 5% CO2 incubator for 3 h, and washed 4 times with PBS with 0.5% BSA. The number of adherent cells in each well was quantified by CellTiter-Glo (Promega).

[4] = tested on: H1299 and HT-1080 cells; assay: Matrigel invasion assay; type: cell-based, human; conditions: 10 nM, 24 h
Experimental: The migration of cells through Matrigel indicates the ability of the cells to digest the extracellular matrix during the process of migration. The Matrigel invasion assay is similar to the chemotaxis assay above except that the 8 μm pore size filter is coated with Matrigel. BD BioCoat Matrigel Invasion Chamber (Corning) was used for the assay with H1299 and HT-1080 cells. 4-arm PEG-GFD, 6-arm PEG-GFD and the blocking antibody VIM5 were used at the concentration of 10 nM. After 24 h treatment, the Matrigel along with the cells remaining on the upper surface of filter in the upper chamber was scraped off with a cotton swab. The migrated cells were measured with CellTiter-Glo as described above.

[5] = target: T3, HT-1080 cells in which the overexpressed uPAR is occupied by endogenous uPA (Homo sapiens, UniProt Q03405); assay: Displacement of endogenous uPA from uPAR on HT-1080 cells; type: binding; conditions: various concentrations; 0.5-4 h on ice
T3 construct: endogenous in cells; host or cells: HT-1080 cells
Experimental: Human fibrosarcoma cell HT-1080 overexpresses both uPA and uPAR and the uPAR is occupied by the endogenous uPA. […] As a control, the competitive potency of uPAR blocking antibody (Clone VIM5) was also tested.
HT-1080 cells were plated in 96-well plate at 30,000 cells/well in 100 μL DMEM medium supplemented with 10% FBS. After overnight incubation, the culture medium was removed and 4-arm PEG-GFD, 6-arm PEG-GFD and mouse anti-uPAR antibody (Clone VIM5, Invitrogen) with various concentrations in Stain Buffer were added into each well. The cells were incubated on ice for 0.5, 1, 2, 3 and 4 h. Then, the cells were washed twice with cold PBS and fixed in 4% paraformaldehyde for 30 min. The plate was blocked with 3% MSD Blocking Buffer for 1 h and the cells were stained with mouse anti-human uPA catalytic domain antibody (Clone 204212; R&D Systems) to quantify the amount of endogenous uPA still associated with the cells. After 2 h incubation with the antibody, HRP-conjugated anti-mouse antibody was added for another hour of incubation. TMB was then added and followed by addition of stop solution. The plate was read at 450 nm absorbance to quantify the endogenous uPA.

[6] = tested on: H1299 and HT-1080 cells; assay: Chemotaxis assay (fibronectin coated transwell); type: cell-based, human; conditions: 10% FBS chemoattractant, 16 h
Experimental: Chemotaxis assay was performed using BD BioCoat 24-well transwell with 8 μm pore size filter which is coated with fibronectin (Corning). For the study, H1299 and HT-1080 cells were detached from culture flasks with trypsin/EDTA, and then the trypsin was deactivated by adding the complete medium. The cells were washed with serum-free medium twice and resuspended at the final density of 50,000 cells in 500 μL DMEM medium supplemented with 0.5% BSA. The cells were treated with multivalent pharmacophores and uPAR blocking antibody for 1 h at 37° C. in 5% CO2 incubator. 650 μL of DMEM with 10% FBS was used as chemoattractant and added into the lower chamber. Serum-free DMEM medium was used as a negative control, and no drug treatment well was considered as 100% migration. After placing the upper chamber into the lower chamber, 500 μL cell suspensions were added to the upper chamber. 4-arm PEG-GFD, 6-arm PEG-GFD and uPAR blocking antibody, VIM5, with various concentrations were added in both upper and lower chambers. The transwell was incubated at 37° C. in 5% CO2 incubator for 16 h. […] The number of cells migrated past the filter was quantify by reading the solution in plate reader after transferring into a white 96-well plates.

[7] = target: T4, Human recombinant PD-L2 (Homo sapiens, UniProt Q9BQ51); assay: Binding to PD-L2 coated MSD plate; conditions: test items at 5 nM; plate coated at 40 nM; FIG. 4B
T4 construct: purchased Abcam
T4 sequence (Q9BQ51 20-273): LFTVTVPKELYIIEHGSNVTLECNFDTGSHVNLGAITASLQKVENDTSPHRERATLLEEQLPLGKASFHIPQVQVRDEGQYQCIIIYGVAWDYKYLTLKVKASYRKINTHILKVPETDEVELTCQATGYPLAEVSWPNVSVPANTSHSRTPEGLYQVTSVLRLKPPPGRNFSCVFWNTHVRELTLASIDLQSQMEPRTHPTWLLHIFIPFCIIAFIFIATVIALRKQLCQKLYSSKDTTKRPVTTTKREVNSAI
Experimental: Human recombinant PD-L1, PD-L2 and CD80 (Abcam) at the concentration of 40 nM were coated onto wells of 96-well MSD plate (small spot, 40 μL/well) overnight at 4° C., and then blocked with 3% MSD Blocking Buffer for 1 h. […] The plates were shaken for another 1 h at room temperature. After washing, SULFO-TAG anti-mouse IgG antibody was added into the plates. The plates were further incubated for 1 h and then washed and read after adding 1×MSD Read Buffer. SULFO-TAG anti-human IgG antibody was added into the plate of PD-L1 Fc chimera proteins. The wells without coating were used as background binding.

[8] = target: CD47 (Homo sapiens, UniProt Q08722); conditions: Ho et al. 2015; read-out: Kd CD47/SIRPα; cited from earlier work
Sequence of CD47 (Q08722 19-323): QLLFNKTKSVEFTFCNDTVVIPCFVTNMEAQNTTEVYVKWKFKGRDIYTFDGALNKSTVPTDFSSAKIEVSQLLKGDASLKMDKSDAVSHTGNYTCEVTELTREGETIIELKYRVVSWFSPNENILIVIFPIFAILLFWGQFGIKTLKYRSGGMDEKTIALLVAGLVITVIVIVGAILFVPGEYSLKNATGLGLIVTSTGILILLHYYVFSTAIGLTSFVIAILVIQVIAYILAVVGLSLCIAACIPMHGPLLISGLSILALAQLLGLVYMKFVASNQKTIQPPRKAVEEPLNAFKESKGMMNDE

T2 sequence (Q03405 23-335): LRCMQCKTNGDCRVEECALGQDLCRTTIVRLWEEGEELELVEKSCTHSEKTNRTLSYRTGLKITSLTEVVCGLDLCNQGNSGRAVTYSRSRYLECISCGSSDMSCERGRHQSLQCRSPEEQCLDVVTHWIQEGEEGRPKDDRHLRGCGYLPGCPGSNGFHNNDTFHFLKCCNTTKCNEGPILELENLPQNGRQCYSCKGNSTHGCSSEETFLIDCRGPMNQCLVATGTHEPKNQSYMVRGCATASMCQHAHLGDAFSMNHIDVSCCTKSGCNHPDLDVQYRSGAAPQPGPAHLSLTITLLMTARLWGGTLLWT
T1 sequence (Q9NZQ7 19-290): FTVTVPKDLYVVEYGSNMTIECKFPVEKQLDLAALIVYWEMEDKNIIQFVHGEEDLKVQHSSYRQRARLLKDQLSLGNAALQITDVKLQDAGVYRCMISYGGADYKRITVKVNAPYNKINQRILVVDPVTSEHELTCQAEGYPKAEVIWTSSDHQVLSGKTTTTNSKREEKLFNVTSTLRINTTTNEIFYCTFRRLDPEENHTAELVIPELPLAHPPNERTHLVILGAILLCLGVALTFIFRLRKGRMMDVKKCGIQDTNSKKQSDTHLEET
T3 sequence (Q03405 23-305 limits assumed): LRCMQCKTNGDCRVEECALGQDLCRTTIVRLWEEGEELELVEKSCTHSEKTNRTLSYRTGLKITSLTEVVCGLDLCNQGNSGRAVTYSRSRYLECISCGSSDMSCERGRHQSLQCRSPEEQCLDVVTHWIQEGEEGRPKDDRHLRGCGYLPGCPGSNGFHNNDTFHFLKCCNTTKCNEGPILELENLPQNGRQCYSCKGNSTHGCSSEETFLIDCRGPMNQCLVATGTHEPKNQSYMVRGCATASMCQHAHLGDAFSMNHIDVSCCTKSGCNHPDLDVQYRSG

Substance: 4-arm PEG-2K PD-1ecto: PD-1 ectodomain (aa. 21-169) site-specifically C-terminally conjugated to 4-arm PEG-2K, tetravalent pharmacophore
- fold more potent than the PD-L1 blocking antibody [1]: about 2.6 fold

Substance: 6-arm PEG-GFD: growth factor-like domain of uPA conjugated to 6-arm PEG-3.4K (VPSNCDCLNGGTCVSNKYFSNIHWCNCPKKFGGQHCEIDKSKT; not fully specified (C-terminus); ends and bridges not checked; also: conjugated to 6-arm PEG-3.4K (site not given here))
- fold increase in binding activity relative to native uPA [2]: ~85 fold
- inhibition of adhesion to vitronectin [3]: inhibited the adhesion of all four cell lines to vitronectin dose-dependently; also recorded: more potent than 4-arm PEG-GFD
- Matrigel invasion [4]: significantly inhibited
- displacement of bound uPA from uPAR [5]: generally more potent than 4-arm PEG-GFD
- migration of cells to the lower chamber (chemotaxis) [6]: significantly reduced migration

Substance: PD-1 Fc chimera: recombinant human PD-1 Fc chimera protein (R&D Systems) [reference compound]
- binding to PD-L2 coated plate [7]: bound

Substance: SIRPα: signal-regulatory protein alpha, binds CD47 through its N-terminal IgV-like domain
- pKd [8]: 6.30 to 6.52
